# Assay results reported in US20240158477A1 (BIODURO JIANGSU, published 2024).
# B1: Fc tagged nanobody VHH60 (Fc fusion)
# chain: EVQLVESGGGLVQPGGSLRLSCAASGRTFRVNLMGWFRQAPGKGRELVASINGFDDITYYPDSVEGRFTISRDNAKRMVYLQMNSLRAEDTAVYYCAAYDSDYDGRLFNYWGQGTQVTVSSGSGGGGSGGGGS
# What was measured:
# Experiment in all cases: cell-based or functional assay
# [1] = biological target: SARS-CoV-2 S protein of variant B.1.351
# [2] = biological target: SARS-CoV-2 S protein of variant P.1
# [3] = biological target: SARS-CoV-2 S protein of variant B1.1.7
# [4] = biological target: SARS-CoV-2 S protein of variant B.1.525
binder,measurement,setting,value
B1,"IC50, pseudoviral entry assay (CaCO2 cells)",[1],18.3 nM
same,"IC50, pseudoviral entry assay (CaCO2 cells)",[2],16.3 nM
same,"IC50, pseudoviral entry assay (CaCO2 cells)",[3],31.8 nM
same,"IC50, pseudoviral entry assay (CaCO2 cells)",[4],15 nM
